These are literature values, as cited in PMC6605686.

This series concerns the target Glu325 (UniProt position 325, TLHMFEVPFLL). As to the kind of experiment: kinetics. Particulars: sugar binding to LacY; apparent pK of galactoside affinity.

Turning to “Lactose permease (LacY) (Escherichia coli)”, the pKa entry is given as “∼10.5”.
